Assay results published in US8895245.

Key:
[1] = tested on: Biotinylated histone H3:21-44 peptide containing dimethylated K27
[2] = tested on: Biotinylated histone H3:21-44 peptide containing monomethylated K27
[3] = tested on: Chicken erythrocyte oligonucleosomes
[4] = tested on: Biotinylated histone H3:21-44 peptide containing unmethylated K27

How did the K (K1/2, concentration of peptide resulting in half-maximal velocity) [1] turn out when “Recombinant five-component PRC2 complex containing Y641S mutant EZH2” was run?
Its K (K1/2, concentration of peptide resulting in half-maximal velocity) is 136 nM.

And the K (K1/2, concentration of peptide resulting in half-maximal velocity) [2]?
Its K (K1/2, concentration of peptide resulting in half-maximal velocity) is 249 nM.

What about the K (Km for nucleosome) [3] of the same substance?
Its K (Km for nucleosome) is 0.137 µM.

How did the K (K1/2, concentration of peptide resulting in half-maximal velocity) [1] turn out when “Recombinant five-component PRC2 complex containing Y641N mutant EZH2” was run?
The K (K1/2, concentration of peptide resulting in half-maximal velocity) was 157 nM.

And the K (K1/2, concentration of peptide resulting in half-maximal velocity) [2]?
The K (K1/2, concentration of peptide resulting in half-maximal velocity) was 280 nM.

And the K (Km for nucleosome) [3]?
The K (Km for nucleosome) was 0.191 µM.

For “Recombinant five-component PRC2 complex containing Y641F mutant EZH2”, which K (K1/2, concentration of peptide resulting in half-maximal velocity) [1] is on record?
The K (K1/2, concentration of peptide resulting in half-maximal velocity) was 191 nM.

What about the K (K1/2, concentration of peptide resulting in half-maximal velocity) [2] of the same substance?
The K (K1/2, concentration of peptide resulting in half-maximal velocity) was 404 nM.

What about the K (K1/2, concentration of peptide resulting in half-maximal velocity) [4] of the same substance?
The K (K1/2, concentration of peptide resulting in half-maximal velocity) was 240 nM.

What about the K (Km for nucleosome) [3] of the same substance?
The K (Km for nucleosome) was 0.176 µM.

How did the K (K1/2, concentration of peptide resulting in half-maximal velocity) [1] turn out when “Recombinant five-component PRC2 complex containing Y641H mutant EZH2” was run?
The K (K1/2, concentration of peptide resulting in half-maximal velocity) was 148 nM.

And the K (K1/2, concentration of peptide resulting in half-maximal velocity) [2]?
Its K (K1/2, concentration of peptide resulting in half-maximal velocity) is 319 nM.

And the K (Km for nucleosome) [3]?
The K (Km for nucleosome) was 0.14 µM.
